Experimental data from the supplement of paper PMC9112550, “Optimization of the antimicrobial peptide Bac7 by deep mutational scanning” (BMC Biology, 2022).

test system: Escherichia coli TOP10; test: shrunken log2 fold change of peptide-encoding DNA abundance (4.5 h post-induction vs induction); higher = less antimicrobial activity (less host growth inhibition); details: time post-induction: 4.5 h; library: site-saturation at positions 5, 18, 19, 20
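Also: peptides expressed intracellularly from a pBAD plasmid library in pooled LB shake-flask culture, induced with 0.3% L-arabinose, DNA abundance read by NGS, three biological replicates, DESeq2 with apeglm shrinkage.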

Sequence	shrunken log2 fold change
RRIRSRPPRLPRPRPRPWLTPRP	-0.0675
RRIRQRPPRLPRPRPRPVWPPRP	0.303
RRIRRRPPRLPRPRPRPGIPPRP	0.322
RRIRGRPPRLPRPRPRPHTTPRP	0.333
RRIRVRPPRLPRPRPRPDVRPRP	-0.106
RRIRFRPPRLPRPRPRPCYWPRP	-0.0974
RRIRYRPPRLPRPRPRPDCFPRP	-0.0906
RRIRPRPPRLPRPRPRPEAPPRP	0.53
RRIRARPPRLPRPRPRPRWMPRP	0.451
RRIRGRPPRLPRPRPRPNWSPRP	0.131
RRIRGRPPRLPRPRPRPGIHPRP	0.251
RRIRDRPPRLPRPRPRPCIAPRP	0.0755
RRIRCRPPRLPRPRPRPYADPRP	-0.037
RRIRSRPPRLPRPRPRPTWRPRP	0.424
RRIRARPPRLPRPRPRPSNCPRP	-0.285
RRIRDRPPRLPRPRPRPFMEPRP	-0.148
RRIRRRPPRLPRPRPRPPNKPRP	0.333
RRIRWRPPRLPRPRPRPHLAPRP	0.265
RRIRKRPPRLPRPRPRPTQDPRP	1.3
RRIRMRPPRLPRPRPRPHADPRP	2
RRIRIRPPRLPRPRPRPDGYPRP	-0.00133
RRIRFRPPRLPRPRPRPSQGPRP	-0.117
RRIRGRPPRLPRPRPRPNQVPRP	0.195
RRIRRRPPRLPRPRPRPALVPRP	0.74
RRIRSRPPRLPRPRPRPHEPPRP	-0.154

Sequence	shrunken log2 fold change
RRIRWRPPRLPRPRPRPGVKPRP	0.505
RRIRSRPPRLPRPRPRPGQMPRP	0.206
RRIRDRPPRLPRPRPRPNPDPRP	-0.0924
RRIRVRPPRLPRPRPRPHHIPRP	-0.386
RRIRSRPPRLPRPRPRPDMTPRP	0.154
RRIRYRPPRLPRPRPRPHKEPRP	0.103
RRIRQRPPRLPRPRPRPSEYPRP	-0.44
RRIRLRPPRLPRPRPRPCVSPRP	-0.108
RRIRIRPPRLPRPRPRPMDFPRP	0.00128
RRIRRRPPRLPRPRPRPEACPRP	0.463
RRIRCRPPRLPRPRPRPPIFPRP	-0.197
RRIRKRPPRLPRPRPRPMCKPRP	0.0429
RRIRRRPPRLPRPRPRPVPCPRP	0.0337
RRIRARPPRLPRPRPRPDVWPRP	0.342
RRIRDRPPRLPRPRPRPGWEPRP	0.00884
RRIRIRPPRLPRPRPRPVGCPRP	0.166
RRIRMRPPRLPRPRPRPATGPRP	0.15
RRIRWRPPRLPRPRPRPMVRPRP	0.0171
RRIRRRPPRLPRPRPRPNVYPRP	0.0361
RRIRDRPPRLPRPRPRPHNSPRP	0.0166
RRIRERPPRLPRPRPRPNGQPRP	0.0342
RRIRARPPRLPRPRPRPEFWPRP	1.12
RRIRYRPPRLPRPRPRPRDYPRP	-1.39
RRIRSRPPRLPRPRPRPVSLPRP	-0.122
RRIRERPPRLPRPRPRPMPRPRP	0.0247

Sequence	shrunken log2 fold change
RRIRRRPPRLPRPRPRPWMTPRP	0.0417
RRIRHRPPRLPRPRPRPWHPPRP	-0.801
RRIRERPPRLPRPRPRPIGWPRP	0.0874
RRIRGRPPRLPRPRPRPITEPRP	0.000184
RRIRCRPPRLPRPRPRPWKRPRP	-0.0584
RRIRLRPPRLPRPRPRPILKPRP	0.0777
RRIRSRPPRLPRPRPRPHADPRP	0.121
RRIRWRPPRLPRPRPRPAEQPRP	-0.00651
RRIRQRPPRLPRPRPRPPNKPRP	0.116
RRIRHRPPRLPRPRPRPCELPRP	0.00567
RRIRQRPPRLPRPRPRPGAAPRP	0.553
RRIRCRPPRLPRPRPRPVCCPRP	0.0914
RRIRIRPPRLPRPRPRPQGCPRP	-0.00156
RRIRIRPPRLPRPRPRPIRWPRP	0.0124
RRIRMRPPRLPRPRPRPQGVPRP	-0.0179
RRIRIRPPRLPRPRPRPTDCPRP	-0.196
RRIRHRPPRLPRPRPRPDHSPRP	-0.00651
RRIRSRPPRLPRPRPRPDPLPRP	0.0174
RRIRFRPPRLPRPRPRPAFFPRP	0.0784
RRIRRRPPRLPRPRPRPEMHPRP	0.705
RRIRWRPPRLPRPRPRPQVQPRP	0.115
RRIRMRPPRLPRPRPRPLDCPRP	0.262
RRIRWRPPRLPRPRPRPHYGPRP	-0.0711
RRIRNRPPRLPRPRPRPYVSPRP	-0.0285
RRIRHRPPRLPRPRPRPQTEPRP	-0.102

Sequence	shrunken log2 fold change
RRIRRRPPRLPRPRPRPYCGPRP	-0.379
RRIRYRPPRLPRPRPRPRCQPRP	-0.259
RRIRQRPPRLPRPRPRPWLYPRP	-0.0636
RRIRKRPPRLPRPRPRPRHCPRP	0.0472
RRIRGRPPRLPRPRPRPMCGPRP	0.645
RRIRERPPRLPRPRPRPQGWPRP	0.114
RRIRIRPPRLPRPRPRPCIPPRP	-0.307
RRIRARPPRLPRPRPRPTFGPRP	0.416
RRIRWRPPRLPRPRPRPRETPRP	0.936
RRIRERPPRLPRPRPRPQHEPRP	0.199
RRIRHRPPRLPRPRPRPYIDPRP	-0.0149
RRIRERPPRLPRPRPRPDISPRP	0.0621
RRIRERPPRLPRPRPRPLYTPRP	-0.41
RRIRSRPPRLPRPRPRPQCIPRP	-1.27
RRIRWRPPRLPRPRPRPGCWPRP	1.09
RRIRFRPPRLPRPRPRPCGMPRP	-0.24
RRIRGRPPRLPRPRPRPPKAPRP	0.63
RRIRWRPPRLPRPRPRPAPDPRP	1.14
RRIRCRPPRLPRPRPRPLDWPRP	0.285
RRIRFRPPRLPRPRPRPYYEPRP	-0.231
RRIRYRPPRLPRPRPRPTEQPRP	-0.0161
RRIRWRPPRLPRPRPRPMWTPRP	0.171
RRIRNRPPRLPRPRPRPFWWPRP	-0.0225
RRIRMRPPRLPRPRPRPSLAPRP	0.566
RRIRWRPPRLPRPRPRPPFDPRP	0.445

Sequence	shrunken log2 fold change
RRIRYRPPRLPRPRPRPLLKPRP	-0.634
RRIRVRPPRLPRPRPRPFPGPRP	0.03
RRIRNRPPRLPRPRPRPEHVPRP	-0.0119
RRIRDRPPRLPRPRPRPNAWPRP	-0.0496
RRIRARPPRLPRPRPRPEDAPRP	0.894
RRIRMRPPRLPRPRPRPGSWPRP	0.858
RRIRSRPPRLPRPRPRPPYAPRP	0.0164
RRIRWRPPRLPRPRPRPAYYPRP	-0.157
RRIRNRPPRLPRPRPRPSNVPRP	-0.615
RRIRARPPRLPRPRPRPPYTPRP	0.16
RRIRWRPPRLPRPRPRPHYAPRP	-0.0597
RRIRFRPPRLPRPRPRPSLSPRP	-0.623
RRIRSRPPRLPRPRPRPMERPRP	-0.0898
RRIRVRPPRLPRPRPRPSDPPRP	-0.179
RRIRCRPPRLPRPRPRPYHTPRP	-0.887
RRIRPRPPRLPRPRPRPYNQPRP	-0.429
RRIRSRPPRLPRPRPRPWMDPRP	-0.0373
RRIRMRPPRLPRPRPRPNCAPRP	0.317
RRIRNRPPRLPRPRPRPAVIPRP	-0.277
RRIRKRPPRLPRPRPRPCFVPRP	-0.0847
RRIRRRPPRLPRPRPRPWNSPRP	0.0625
RRIRSRPPRLPRPRPRPEYTPRP	-0.0105
RRIRNRPPRLPRPRPRPHDGPRP	-0.378
RRIRRRPPRLPRPRPRPWRLPRP	0.289
RRIRPRPPRLPRPRPRPDDEPRP	0.331

Sequence	shrunken log2 fold change
RRIRNRPPRLPRPRPRPCTHPRP	-0.147
RRIRERPPRLPRPRPRPHEKPRP	-0.00663
RRIRGRPPRLPRPRPRPLMIPRP	0.139
RRIRLRPPRLPRPRPRPFTLPRP	-0.192
RRIRYRPPRLPRPRPRPGMMPRP	-0.426
RRIRARPPRLPRPRPRPDIRPRP	0.148
RRIRVRPPRLPRPRPRPYNRPRP	-0.0579
RRIRCRPPRLPRPRPRPCFNPRP	0.713
RRIRCRPPRLPRPRPRPQIHPRP	-0.548
RRIRNRPPRLPRPRPRPIEHPRP	-0.307
RRIRTRPPRLPRPRPRPQKDPRP	-0.455
RRIRERPPRLPRPRPRPRETPRP	0.0334
RRIRCRPPRLPRPRPRPKFNPRP	-0.477
RRIRWRPPRLPRPRPRPMMRPRP	1.08
RRIRFRPPRLPRPRPRPPEYPRP	-0.0154
RRIRFRPPRLPRPRPRPNFHPRP	-0.218
RRIRSRPPRLPRPRPRPPFRPRP	0.193
RRIRPRPPRLPRPRPRPCVDPRP	-0.149
RRIRERPPRLPRPRPRPIWMPRP	0.0239
RRIRMRPPRLPRPRPRPDGIPRP	1.33
RRIRCRPPRLPRPRPRPRPGPRP	0.733
RRIRSRPPRLPRPRPRPKCAPRP	0.0261
RRIRMRPPRLPRPRPRPVKPPRP	0.202
RRIRLRPPRLPRPRPRPDSNPRP	-0.0277
RRIRFRPPRLPRPRPRPHAWPRP	-0.126
